From paper doi:10.1101/2021.05.23.445348

Target: SARS-CoV-2 spike receptor binding domain, wild type (SARS-CoV-2) (UniProt P0DTC2)
Test: ITC

CC12.1 single chain variable fragment (scFv)
Kd: 28 nM | dH: 4.8 kcal/mol | stoichiometry N: 1
